Source: US20240043534A1

Molecular target: Fab with CK (kappa) light chain constant domain
Experiment: ELISA

fold lower EC50 for CK than for Cλ: 7 fold
Substance: wild type Protein G (wild-type non-modified protein G polypeptide)
